Measurements from publication PMC9645730, “Cryo-EM structure of the human sodium-chloride cotransporter NCC” (Science Advances, 2022).

Target: the molecule itself
Assay: cryo-EM structure; single-particle analysis of purified NCC at 9 mg/ml in 25 mM tris (pH 8.0), 150 mM NaCl, 0.02% GDN; TMD map with C2 symmetry, overall map with C1 symmetry

B1: human sodium-chloride cotransporter NCC (natural protein, UniProt P55017-1 1-1021, looked up)
chain: MAELPTTETPGDATLCSGRFTISTLLSSDEPSPPAAYDSSHPSHLTHSSTFCMRTFGYNTIDVVPTYEHYANSTQPGEPRKVRPTLADLHSFLKEGRHLHALAFDSRPSHEMTDGLVEGEAGTSSEKNPEEPVRFGWVKGVMIRCMLNIWGVILYLRLPWITAQAGIVLTWIIILLSVTVTSITGLSISAISTNGKVKSGGTYFLISRSLGPELGGSIGLIFAFANAVGVAMHTVGFAETVRDLLQEYGAPIVDPINDIRIIGVVSVTVLLAISLAGMEWESKAQVLFFLVIMVSFANYLVGTLIPPSEDKASKGFFSYRADIFVQNLVPDWRGPDGTFFGMFSIFFPSATGILAGANISGDLKDPAIAIPKGTLMAIFWTTISYLAISATIGSCVVRDASGVLNDTVTPGWGACEGLACSYGWNFTECTQQHSCHYGLINYYQTMSMVSGFAPLITAGIFGATLSSALACLVSAAKVFQCLCEDQLYPLIGFFGKGYGKNKEPVRGYLLAYAIAVAFIIIAELNTIAPIISNFFLCSYALINFSCFHASITNSPGWRPSFQYYNKWAALFGAIISVVIMFLLTWWAALIAIGVVLFLLLYVIYKKPEVNWGSSVQAGSYNLALSYSVGLNEVEDHIKNYRPQCLVLTGPPNFRPALVDFVGTFTRNLSLMICGHVLIGPHKQRMPELQLIANGHTKWLNKRKIKAFYSDVIAEDLRRGVQILMQAAGLGRMKPNILVVGFKKNWQSAHPATVEDYIGILHDAFDFNYGVCVMRMREGLNVSKMMQAHINPVFDPAEDGKEASARVDPKALVKEEQATTIFQSEQGKKTIDIYWLFDDGGLTLLIPYLLGRKRRWSKCKIRVFVGGQINRMDQERKAIISLLSKFRLGFHEVHILPDINQNPRAEHTKRFEDMIAPFRLNDGFKDEATVNEMRRDCPWKISDEEITKNRVKSLRQVRLNEIVLDYSRDAALIVITLPIGRKGKCPSSLYMAWLETLSQDLRPPVILIRGNQENVLTFYCQ
modifications: N-acetylglucosamine on Asn406 and Asn426; disulfide bonds Cys416-Cys421 and Cys430-Cys436
notes: human NCC (SLC12A3), cloned from HEK293 cDNA; an isoform that, compared with UniProt P55017-1, carries the naturally occurring A264G and lacks Gln95; residue numbers count on P55017-1; The atomic model holds residues 137-605 (TMD) and 616-1020 (CTD, docked as a rigid body from a SWISS-MODEL prediction); No cleavage of the tags is told; also called Na+-Cl- cotransporter; SLC12A3; not shown: FLAG, …
In the case of B1, the “stoichiometry N” value is reported as 2.
